Measured values: the DeepSol protein solubility set

assay: soluble on expression in E. coli; label from the status in PepcDB or PDB records

Row | Sequence | soluble on expression in E. coli
1 | MKNKDSLHVSRRRFLAQLGGLTVAGMLGPSLLTPRSARAADAVAPGAATKEGILTGSHWGAIRATVVDGRFVAAKPFEQDKYPSKMIAGLPDHVHNAARIRYPMVRVDWMRKGHQSDTSQRGDNRFVRVSWDEALDLFYQELERVQKTYGPSALLTASGWQSTGMFHNASGMLARAIALHGNSVSTGGDYSTGAAQVILPRVVGSMEVYEQQTSWPLVLQNSKTIVLWGSDMVKNQQANWWCPDHDVYQYYEQLKEKVASGAISVISIDPVVTSTHDYLGRDKVKHIAINPQTDVPLQLALAHTLYSEKLYDKNFLDNYCVGFDQFLPYLLGEKDGQPKDAAWAEKLCGIDADTIRALARQMAGDRTQIIAGWCVQRMQHGEQWSWMVVVLAAMLGQIGLPGGGFGFGWHYNGAGTPGRKGIILSGFSGSTTVPPVHDSTDYKGYSSTIPIARFMDAILEPGKIINWNGKSVKLPPLKMCVFAGTNPFHRHQQINRIIEGWRKLETVIAIDNQWTSTCRFADIVLPATTQFERNDLDQFGNHSNRGIIAMKQVVSPQFEARNDFDIFRDLCRRFNREAAFTEGLDEMGWLKRIWQEGSQQGKGRGIHLPIFEVFWNQQEYIEFDHPQMFVRHQAFREDPDLEPLGTPSGLIEIYSKTIADMQYDDCQGHPMWFEKIERSHGGPGSQRWPLHLQSVHPDFRLHSQLCESETLRQQYAVGGKEPVFINPQDASARGIRNGDIVRVFNARGQVLAGAVVSDRYAPGVARIHEGAWYDPDKGGDLNALCKYGNPNVLTLDIGTSQLAQATSAHTTLVEIEKYTGPMDNVTAFNGPVEMVAQCEYVPASQGNPHD | not soluble
2 | SAAKALKDLKNLPVSERNIDYKTKLLVGKMNGTAEDKPPQNSVPFDHNHPKGDEIEKPEAERVIVEIEYIESKDLNNVTQVDAVLKSLVTELDSKDWVLVCDALNTIRRLSIFHKEEMLHMLEKVILFIVKSLKNPRSAVSKTACMTSADIFSSYNDHTIDQLDLLLTQLLLKSSQDKRFVCEAAEKALVAMTAHVSPALLLPKLQPFLKNRNPRIRAKASTCFSRCVPRLGIEGIREYGIEKLVQAASSQLSDQLPESREAARAVLLELQTVYKKTTNVEPKEEHPEPVTWQIFCQSNLSPLSAQAVIRVTNVAGVAREGLVAGS | soluble
3 | MSLFPDKYDSYLYINQDKIREDLKRALKDALRICLFHITHKSPNIRTEKATRICYYRECGYTDEQIIDKILEEEYVGFVDNIESAIKSREARFRNPQNSAKIACFTENVQSKYMWDRYADGYKGFALEYDLRNCVFKYNKLGMNVNLFPVIYTDLRPDVTLDEGNIHTYEYFKQIGDKNWLNYLNSIISVNQLYWYKAYLYKDQKEYEHEHEWRMLYYNFENEEDYASIPDTGCLKAIYYGPDIAKKDKEKLHRIAVKKGLKEYDVNLDAESRKYDLKVTMFQEGHHHHHH | not soluble
4 | SEDCCMLPYYTAQSSPAMGMFNTSMGKLQRQLYKGEYTIFRYAPMFESDFIQISKRGEVIDVHNRARMVTMGIVRTSPCLTLPDVMLLARPAAVCDNARCGPATQKRESPPAEILELTRLLPLMFVKITIHNSVKKQLHLKLATGRSFYLQLCPPSDASEDLFVHWENLVYILRPPVEAYSDTRAILAGNTLDSSVLEEVQRSPVGYAMKFCEEKEQFRISRLHMNAEMFGSTYCDYTIEI | soluble
5 | MKHSHLYELQPDPYDFTQRKTCRVCLFKDVKNAAELSQQLKEGKIDAALIRAELVLEPFVLLAAANRAVHQSAHNRMSCRSLAAELVYSLSPSRNITDSLVTFGIAEHSTAIIAAIFDDDSGKAMKKLAKAIKGTPVPLMEGLPKFANVNMIKKVYQVGNPAFVEEGLSDHIVSRMVSKDFVS | not soluble
6 | MKITVFGATGNVGNRVITEALLRGHEITAVLRNNARANEFDSSVKVVIGHADNVDDVVKWSDGQDLIISATRPPQGLESQLVDTAKALLSGLAQTKVRLLLVGGAASLTVPNSNGMLVVDDTDLVPTAWRDIALACLAQHKLCQENESVDWSYISPPAVIVPGERTGIFRTGSDELLVDEQGQSTISLEDFAIALLDEAEVVKHKRKRFTVAYLEHHHHHH | not soluble
7 | RVTVMLAAFEGWNDAGEAASDALHYLNKLWDGKKVATVDAEEYYDFQFTRPTVRRTSSGARKVKWPSTRIYKAEVPDSNVDVVLVLGTEPSYRWRAYTTELLVHAEALKVDSVILVGALLADVPHSRPIPVSTTTEDSSLRERLNLEASQYEGPVGIVGVLAEFAMLAGLPTVSLWAAVPHYVAQPPSPKAQLAILHRIEDLLQVPLDSQALAEESEAWERGVDELATEDPEITAYVRQLEEAKDTADLPE | not soluble
8 | MISAAPYRDRVVHHALYNIIVPIFERTFISDSYANRVGFGSHRALRRFTQFSRSSHYVFQADIRKYFPSIDHKILKHLIYRKIKCPDTLWLINTIIDNSNFQEPVINYFPGDNLLAPLERRCGLPIGNLTSQFFANVYLNNFDHFVKEQLQAFKYIRYVDDFALFSDDKAFLETARVIIEEYLTSLRLKIHPIKSQLFETKHGANFVGFRILPNQIRVRSDNLRLGRKRLRQMLRDYDEGKIDAQHLTQSTQSWVAHLKHGDTWQLRQRIFSSSIFDLAMLILEHHHHHH | soluble
9 | MVRPPPFEFRPARPPGTRALQLEVITNIIWENAPMADLDALRSRFAHALAGATAPGATAGAGPGSGPDPAPYADNLLARWQEPQRRYHTLAHLTAVLDRVDVLAEHADDVAVVRLAAWFHDAVYQPDRSENEERSARLAERALPEAGVPAAKTAEVARLVRLTVTHAPAGDDRDGQVLCDADLAVLASPPSAYAAYTAAVREEYHFVPNEAFREGRAAILRQLLDLPSLFHTPYGRQEWEATARHNLTGELEMLSLPDTPDVLEHHHHHH | not soluble
10 | ANRHPAKVVSTRYFPQARVMELVLAPSNNGQGKPWQGHKAGQFAYVRFGNEDPHPFTIVSGEHEPEVRFLIKELGDFTTDLYHRVKIGEEVMVEGPYGRLA | not soluble
11 | MQEVHDYGAYLILDEYGGVRAFLPWSEIASRAVRNIHAVLKPRQKVVVKVIRVYKKRGQVDVSLKRVMDSEKKRKMMFYKRYLKAATLVELIAEKLGKSVDEAYREVLWKLEDAYGDPMKGLEAAVLQGREALEKAGVPEEWIEPLLETAKTHVRVKTVKITFYLTLRSMAGDGVERVRKVLEAAKSQIESFKDSKVVARIYTVGAPKYRVELQGYNYKTLEKALEKMVEAARKTASKLGVEFSFERED | soluble
12 | MSLGSTTPISIFELVTRLENDSQVANDTKHLFFSGENIGYSEMIGRRPNMEDAIVIRENFREKLHIAAVFDGHSGHSVARSCAASLPDLLRNDETINSDAIKKHLDHINHVLLSSNDLAGSTMQFAIIDMNNNHLTIMQLGDSRSVVYKNDGRVTFYTQEMRPERRSELARLREDRIRLKRLRTGGMLACSTSIGDFQVKGISHEPEVIEMDISDDDRWIVIACDGLWDDVNNESAAKILLDSESPHVAATLLRDLAFQRGSEDNISVIVVDLDLLRNEGHHHHHH | soluble
13 | MSLDTYTTSEVADLIGVHPNTVRLYEELNLIPKPKRNTNGYRIFNDFHIEQFRFARTALKIEVVQRGLRKDALEIVRTSANRDFDKAISLVNQYLQQLEIEKSNAEEALTIVAQILNGNTPETNKLFLTRKETAEHLNEGHHHHHH | not soluble
14 | MDKFKYAFDNKRYHTWNYYLRNTFGEKVFKVSINAGFTCPNIDGSLGYGGCTYCSKEGSGDFAGNPKDNLISQFYNIKEMMLKKWPHAKYIGYFQAYTNTYAPLEVLKEKYETILELEDVIGLSISTRPDCLPDDIVEYLSELNKRTNLWVELGLQTIHDSTSKIINRGHDYKTFVEGVEKLKSKNIKVVVHIINGLPGEDYNMMMETAKAVGKMGVDGIKIHLLHVIKDTPMEKMLQNGMLTLMEQDEYINLVCDQLEILPETMIIHRLTGDGKRDELVGPIWSLKKWEILNKIDDTLKARNSYQGCKFV | soluble
15 | MGHDTIAKFLLTSGSTGNPKAVINTQRMICANQVMIREAMAFLKDEPPVIVDWLPWNHTFGGNHNIGLTLFNGGSMYIDDGKPTPAGIASTIRNLREIAPTVYFNVPKGYESLLPVLREDQQLRKLFFSRLHAMFFSGASLAAHVWNGLDEVAVAETGARVPMLTGLGATETAPFFMSVTPQTSRSGHVGLPVPGLEHHHHHH | not soluble
16 | AHHHHHHGSKAVTFPVPWEYLKRIFEGKNVFVKPATLRVEEGMKVIFYASRENQGWHGEAEVERVEYYTSVEEIIKKYRDKLFLTPEELRRYERDRARWDSGRRKRPWMVLVLRNIEKYPRVVKPKKFIVVSGRYVDEKEYEEIRRSTS | not soluble
17 | MAYSLTRKLLKDWKYFMRHPEKTQGLFHVRPHDSDLHLWHVVMYEPRTSLEVYLLLYIGGNDQDPYIIMKCLSPNCCFPINRTVSMTHLNYLLLKDLGLQDLLFHIWQPLFHIQATEDLQYSPSTVKFNRAWNRIIYKDFKSYFPELIGTLQPGDYSIVKSYSKNHNISNSNGGSVNEFMSSYNAQSHTFHAQDNSKNPYTNSSIGKSSMLSTLNNNNVNKRTHDYNAIDFMTKNLLACDDDSIHPVVSSKRSRTLACPDETNDNRGSEHYTKRKKI | soluble
18 | MGSDKIHHHHHHMSKKVVLTREASKNKPWQTYFSQNGYEVMSIPLIKTQPIKINLTREQQETDWLFLTSANAVEYFFTNQYERSNYKIAVIGEKTKEKLAEFGHEPSFVPSIYQSEVFLEEWLNENPEKTSILLPQSNLSRTIIKDTLIEKGYIVFSIELYETIFPEASKKLLTEQLKLNETQIIVFASPSAWKNFYSIAKSFPAQKEKWHIASIGSITTEAILADGWEVKYQPKTFTMKHLADLIIQEELK | not soluble
19 | MGSDKIHHHHHHVAKVPQRKLLLSEIQLGMRVKLPLSWTNHPFLFNRVDISSAAQIEMIRGLGVPYVLLLSELNPASEVVEEDENVEDEIAAEPERDLKADTRKAIRLSQKRFLENVNNCRNVFGKIVSDPEGAYRLSAALVEDLLSHLQEVEKPFLTLVGMDDSDVSVTQHGVSVAVLAMMMGHALDLSPRELRDIALGSLLHDIGKLKVPDVIRRKRGALTPHEANYLQMHPNFAYDMLNRSGLFPKEVLHIVLHHHEFIDGSGFPDGLTDHKIPITTQIVSLANDYDQQLSGQQISSPQVALGYLFKNRATKHAESLIAILVKILGIYPPGTIVRLSDDSVAKVMMTTKEVSQPQVWACKEDGSEASLRFLSDEGVTVQKAIKAEELSEGAIRTLQVDKGVSFYFSSLQT | not soluble
20 | MEERGDSEPTPGCSGLGPGGVRGFGDGGGAPSWAPEDAWMGTHPKYLEMMELDIGDATQVYVAFLVYLDLMESKSWHEVNCVGLPELQLICLVGTEIEGEGLQTVVPTPITASLSHNRIREILKASRKLQGDPDLPMSFTLAIVESDSTIVYYKLTDGFMLPDPQNISLRR | soluble
21 | MSEKSIVTKILRYLKTVPGCFCWKEHGGMYGTAGLPDIIACVNGRFIAFEVKTPSGKTTKLQEATIKKILNAGGVAAVVHSVDEVKVILEKHDLLQRTKI | soluble
22 | MGSSHHHHHHSSGRENLYFQGMIYQPDENRYHTMEYRRCGRSGVKLPAISLGLWHNFGDTTRVENSRALLQRAFDLGITHFDLANNYGPPPGSAECNFGRILQEDFLPWRDELIISTKAGYTMWDGPYGDWGSRKYLIASLDQSLKRMGLEYVDIFYHHRPDPETPLKETMKALDHLVRHGKALYVGISNYPADLARQAIDILEDLGTPCLIHQPKYSLFERWVEDGLLALLQEKGVGSIAFSPLAGGQLTDRYLNGIPEDSRAASGSRFLKPEQITADKLEKVRRLNELAARRGQKLSQMALAWVLRNDNVTSVLIGASKPSQIEDAVGMLANRRFSAAECAEIDAILEGRF | soluble
